T1: human IL-1α (human, UniProt P01583 113-271)
T1 construct: also called IL-1alpha; hIL-1α
T1 sequence (looked up): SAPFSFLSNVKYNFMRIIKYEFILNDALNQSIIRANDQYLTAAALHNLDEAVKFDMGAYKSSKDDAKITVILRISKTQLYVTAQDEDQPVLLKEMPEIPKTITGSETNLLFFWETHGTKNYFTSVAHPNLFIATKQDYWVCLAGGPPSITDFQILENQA


Experiments:
human IL-1α [1] = molecular target: T1, human IL-1α; test: Table 62 IC50; RBA presumed
human IL-1α [2] = molecular target: T1, human IL-1α; test: cell-based or functional assay

Binder | IC50 (human IL-1α [1]) | ND50 (human IL-1α [2])
ABT1-122-511 (other, VK dAb) VL: DIQMTQSPSSLSASVGDRVTITCRASQPIWTELNWYQQKPGKAPKLLIYGSSSLQRGVPSRFSGSGSGTDFTLTISSLQPEDFATYYCKQFAYFPATFGQGTKVEIKR | 10 nM | 18 nM
ABT1-122-21 (other, VK dAb) VL: DIQMTQSPSSLSASVGDRVTITCRASQPIWTELNWYQQKPGKAPKLLIYGSSSLQSGVPTRFSGSGSGTDFTLTISSLQPEDFATYYCQQFAYFPATFGQGTKVEIKR | 80 nM | 100 nM
ABT1-141-70 (other, VK dAb) VL: DIQMTQSPSSLSASVGDRVTITCRASQWIQKQLAWYQQKPGKAPKLLIYSSSHLQSGVPSRFSGSGYGTDFTLTISSLQPEDFATYYCQQHLRVPMTFGQGTKVEIKR | 1 nM | 1 nM
ABT1-141-77 (other, VK dAb) VL: DIQMTQSPSSLSASVGDRVTITCRANQWIQKQLAWYQQKPGKAPKLLIFSSSHLQSGVPSRFSGSGSGTDFTLTISSLQPQDFATYYCQQHLRVPMTFGQGTKVEIKR | 3 nM | 1 nM
ABT1-141-51 (other, VK dAb) VL: DIQMTQSPSSLSASVGDRVTITCRASQWIQKQLAWYQQKPGKVPKLLIYSSSYLQSGVPSRFSGSGSGTDFTLTISSLEPEDFATYYCQQHLRVPMTFGQGTKVVIKR | 10 nM | 20 nM
ABT1-141-45 (other, VK dAb) VL: DIQMTQSPSSLSASVGDRVTITCRASQWIQKQLAWYQQKPGKAPKLLIYSSSYLQSGVPSRFSGSGSGTDFTLTISSLQLEDFATYYCQQHLRVPMTLGQGTKVEIKR | 100 nM | 100 nM
ABT1-141-49 (other, VK dAb) VL: DIQMTQSPSSLSASVGDRVTITCRASQWIQKQLAWYQLKPGKAPKLLIYSSSHSQSGVPSRFSGSGSGTDFTLTISSLQPEDFATYYCQQHLRVPMTFGQGTKVEIKR | 3 nM | 5 nM
ABT1-141-76 (other, VK dAb) VL: DIQMTQSPSSLSASVGDRVTITCRANQWIQKQLAWYQQKPGKAPKLLIYSSSHLQSGVPSRFSGSGSGTDFTLTISSLQPEDFATYYCQQHLRVPMTFGQGTKVEIKR | 1 nM | 1 nM
ABT1-93 (other, VH dAb) VH: EVQLLESGGGLVQPGGSLRLSCAASGFTFNEYNMVWVRQAPGKGLEWVSSISGGGGFTYYADSVKGRFTISRDNSKNTLYLQMNSLRAEDTAVYYCAKPLRGFVCSQHCSFDYWGQGTLVTVSS | > 10000 nM | 5000 nM
ABT1-95-117 (other, VK dAb) VL: DIQMTQSPSSLSASVGDRVTITCRASQPIVRNLRWYQQKPGKAPKLLIYSSSYLEPGVPSRFSGSGSGTDFTLTISSLQPEDFAMYHCVQGYRWPVTFGQGTKVEIKR | 0.2 nM | 0.1 nM
ABT1-95-161 (other, VK dAb) VL: DIQMTQSPSSLSASVGDRVTITCRASQPIVRNLRWYQQKPGKAPKLLIYSSSYLEPGVPSRFSGSGSGTDFTLTISSLQPEDFATYHCQQGYRWPPTFGQGTKVEIKR | 0.1 nM | 0.5 nM
ABT1-95-122 (other, VK dAb) VL: DIQMTQSPSSLSASVGDRVTITCRASQPIVRNLRWYQQKPGKAPKLLIYSSSYLEPGVPSRFSGSGSGTDFILTISSLQPEDFATYHCQQGYRWPVTFGQGTKVEIKR | 0.1 nM | 0.116 nM
ABT1-95-160 (other, VK dAb) VL: DIQMTQSPSSLSASVGDRVTITCRASQPIVRNLRWYQQKPGKAPKLLIYSSSYLEPGVPSRFSGSGSGTDFTLTISSLQPEDFATYHCQQGYVWPVTFGQGTKVEIKR | 0.1 nM | 0.238 nM
ABT1-95-148 (other, VK dAb) VL: DIQMTQSPSSLSASVGDRVTITCRASQTIVRNLRWYQQKPGKAPKLLIYSSSYLEPGVPSRFSGSGSGTDFTLTISSLQPEDFATYHCQQGYRWPVTFGQGTKVEIKR | 0.2 nM | 0.19 nM
ABT1-95-131 (other, VK dAb) VL: DIQMTQSPSSLSASVGDRVTITCRASQPTVRNLRWYQQKPGKAPKLLIYSSSYLEPGVPSRFSGSGSGTDFTLTISSLQPEDFATYHCQQGYRWPVTFGQGTKVEIKR | 0.1 nM | 0.085 nM
ABT1-164 (other, VK dAb) VL: DIQMTQSPSSLSASVGDRVTITCRASRPIAGNLRWYQQKPGKAPKLLIWGASSLQSGVPSRFSGSGSGTDFTLTISSLQPEDFATYYCVQGWQWPITFGQGTKVEIKR | > 1000 nM | 14 nM
ABT1-6-15 (other, VH dAb) VH: EVQLLESGGGLVQPGGSLRLSCAASGFTFVRYDMAWVRQAPGKGLEWVSSINKSGALTSYADSVKGRFTISRDNSKNTLYLQMNSLRAEDTAVYYCAKGWASFDYWGQGTLVTVSS | 200 nM | 500 nM
ABT1-6 (other, VH dAb) VH: EVQLLESGGGLVQPGGSLRLSCAASGFTFGAYDMQWVRQAPGKGLEWVSSINKSGALTSYADSVKGRFTISRDNSKNTLYLQMNSLRAEDTAVYYCAKGWASFDYWGQGTLVTVSS | 3000 nM | 3000 nM

More lines, now with the values ahead:

IC50 (human IL-1α [1]) | ND50 (human IL-1α [2]) | Binder
> 10000 nM | > 10000 nM | ABT1-92 (other, VH dAb) VH: EVQLLESGGGLVQPGGSLRLSCAASGFTFSTYTMTWVRQAPGKGLEWVSTIFPGGSTTYYADSVKGRFTISRDNSKNTLYLQMNSLRAEDTAVYYCAKYVDFVKLSFDYWGQRTLVTVSS
5 nM | 7 nM | ABT1-122-18 (other, VK dAb) VL: DIQMTQSPSSLSASVGDRVTITCRASQPIWTELNWYQQKPGKAPKLLVYGSSSLQSGVPSRFSGSGSGTDFTLTISSLQPEDFATYYCQQFAYFPATFGQGTKVEIKR
3 nM | 5 nM | ABT1-141-43 (other, VK dAb) VL: DIQMTQSPSSLSASVGDRVTITCRASQWIQKQLAWYQQKPGKAPKLLIYSSSYLQSGVPPRFSGSGSGTDFTLTISSLQPEDFATYYCQQHLRVPMTFGQGTKVEIKR
50 nM | 10 nM | ABT1-141-53 (other, VK dAb) VL: DIQMTQSPSSLSASVGDRVTITCRASQWIQKQLAWYQLKPGKTPKLLIFSSSYLQSGVPSRFSGSGSGTDFTLTISSLQPEDFATYYCQQHLRVPMTFGQGTKVEIKR
10 nM | 20 nM | ABT1-141-50 (other, VK dAb) VL: DIQMTQSPSSLSASVGDRVTITCRASQWIQKQLAWYQQKPGKTPKLLIYSSSYLQSGVPSRFSGSGSGTDFTLTISSLQPEDFATYYCQQHLRVPMTFGQGTNVEIKR
1 nM | 1 nM | ABT1-141-47 (other, VK dAb) VL: DIQMTQSPSSLSASVGDRVTITCRANQWIQKQLAWYQQKPGKAPKLLIYSSSHLQSGVPSRFSGSGSGTDFTLTISSLQPQDFATYYCQQHLRVPMTFGQGTKVEIKR
3 nM | 1 nM | ABT1-141-48 (other, VK dAb) VL: DIQMTQSPSSLSASVGDRVTITCRASQWIQKQLAWYQQKPGKAPKLLIFSSSHLQSGVPSRFSGSGSGTDFTLTISSLQPEDFASYYCQQHLRVPMTFGQGTKVEIKR
0.2 nM | 0.064 nM | ABT1-95-149 (other, VK dAb) VL: DIQMTQSPSSLSASVGDRVTITCRASQAIVRNLRWYQQKPGKAPKLLIYSSSYLEPGVPSRFSGSGSGTDFTLTISSLQPEDFATYHCQQGYRWPVTFGQGTKVEIKR
0.2 nM | 0.1 nM | ABT1-95-139 (other, VK dAb) VL: DIQMTQSPSSLSASVGDRVTITCRASQQIVRNLRWYQQKPGKAPKLLIYSSSYLEPGVPSRFSGSGSGTDFTLTISSLQPEDFATYHCQQGYRWPVTFGQGTKVEIKR
1000 nM | 105 nM | ABT1-163 (other, VK dAb) VL: DIQMTQSPSSLSASVGDRVTITCRASGNIVHNLRWYQQKPGKAPKLLIYAASRLQSGVPSRFSGSGSGTDFTLTISSLQPEDFATYYCAQGYEWPLTFGQGTKVEIKQ
0.2 nM | 0.122 nM | ABT1-95-118 (other, VK dAb) VL: DIQMTQSPSSLSASVGDRVTITCRASQPIVRNLRWYQQKPGKAPKLLIYSSSYLEPGVPSRFSGSGSGTDFTLTISSLQPEDFATYHCSQGYRWPVTFGQGTKVEIKR
0.1 nM | 2 nM | ABT1-95-132 (other, VK dAb) VL: DIQMTQSPSSLSASVGDRVTITCRASQPIVRNLRWYQQKPGIAPKLLIYSSSYLEPGVPSRFSGSGSGTDFTLTISSPQPEDFATYHCQQGYRWPVTFGQGTKVEIKR
0.2 nM | 0.1 nM | ABT1-95-121 (other, VK dAb) VL: DIQMTQSPSSLSASVGDRVTITCRASQPIVRNLRWYQQKPGKAPKLLIYSSSYLEPGVPSRFSGSGSGTDFTLTISSLQPEDFATYHCQQGYEWPVTFGQGTKVEIKR
80 nM | 60 nM | ABT1-6-3 (other, VH dAb) VH: EVQLLESGGGLVQPGGSLRLSCAASGFTFGAYDMQWVRQAPGKGLEWVSSIYKSGALTSYADSVKGRFTISRDNSKNTLYLQMNSLRAEDTAVYYCAKGWASFDYWGQGTLVTVSS

Source: patent US20090291081A1 (AbbVie / Abbott, published 2009)
